Tests used:
[1] = target: T1, recombinant human CD160 protein, soluble form, with a C-terminal tag of 6 histidine residues (R&D SYSTEMS) (human, UniProt O95971 27-159, limits assumed, biotinylated with EZ-Link sulfo-NHS-LC-biotin for BLI and ELISA; not biotinylated when immobilised on the CM5 chip for SPR); test: SPR (Biacore), design close to Example 2
T1 construct: domain: soluble form; Bought protein; also called hCD160-his; biotinylated CD160
T1 sequence: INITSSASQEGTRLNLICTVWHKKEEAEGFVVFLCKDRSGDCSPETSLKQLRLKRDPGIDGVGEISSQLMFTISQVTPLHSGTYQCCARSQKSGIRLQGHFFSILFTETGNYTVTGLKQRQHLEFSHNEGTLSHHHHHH

[2] = target: T1, recombinant human CD160 protein, …; test: BLI (repeats Table 7)
[3] = target: T2, human CD160 (CD160 GPI isoform) on cells (human, UniProt O95971 25-159, GPI anchor); test: flow cytometry, percentage of labelled YT2C2 NK cells (2x10^5 cells), antibody 0.39 to 50 nM [panel C]
T2 construct: whole, on cells; Used for all cells said to carry human CD160: transfected CHO-S and E300 cells and cells that carry it naturally (YT2C2, blood NK, CD8+ T, T CD4, CLL cells); also called hCD160; CHO-S-hCD160 (clone 2G10)
T2 sequence (looked up): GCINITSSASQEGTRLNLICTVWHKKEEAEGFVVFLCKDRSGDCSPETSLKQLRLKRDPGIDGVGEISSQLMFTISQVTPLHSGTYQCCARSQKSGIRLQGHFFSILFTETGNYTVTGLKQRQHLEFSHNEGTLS
Experimental: (§1) The binding capacity of the anti-CD160 H7 antibody and of the H7 D12 variant in the IgG4, Fab and Fab-linker Fab format was evaluated during the labelling of surface CD160 expressed naturally on a clone of NK cell line (YT2C2), by measuring the percentage of cell labelled=percentage of binding (see FIG. 1C). For this, 2×10⁺⁵ YT2C2 cells were labelled with increasing concentration of antibodies (from 50 nM to 0.39 nM) and also with the appropriate control isotype. […] In FIG. 1C, IgG4 variants ELB01103 and ELB01104 bind more efficiently to the YT2C2 cells than the H7 IgG4 ELB01101 (which results in a EC₅₀ increased by a factor of 10 compared with H7 IgG4). This is also true for the Fab-linker-Fab format ELB01132. By contrast Fab format ELB01122 bind less efficiently to the YT2C2 cells than the H7 IgG4 ELB01101 (which results in a EC₅₀ decreased by a factor of 2 compared with H7 IgG4). This is certainly due to the monovalency of the Fab format.

[4] = target: T2, human CD160 (CD160 GPI isoform) on cells; test: flow cytometry, percentage of labelled YT2C2 NK cells, antibody 0.39-50 nM; the text means better binding
Experimental: as §1

[5] = target: T1, recombinant human CD160 protein, …; test: BLI, biotinylated CD160 at 10 nM on streptavidin sensor, antibody 3.13-100 nM
Experimental: The dissociation constants and the association (kₒₙ) and dissociation (kdis) rate constants for each antibody were calculated by applying a 1:1 interaction model, with overall mathematical modelling of curves (fit) (Rmax bound by the sensor) on the ForteBio 9.0 data analysis software.

[6] = target: T1, recombinant human CD160 protein, …; test: BLI
[7] = target: T2, human CD160 (CD160 GPI isoform) on cells; test: flow cytometry on CHO-hCD160 transfectants
Experimental: The binding capacity of the anti-CD160 H7 antibodies and of the variants (D12 and A09) thereof in the IgG4 and IgG1 format and in the IgG1 E345K format was evaluated during the labelling of surface CD160 expressed in a recombinant line CHO-S-hCD160 (clone 2G10) in comparison with non-transfected CHO-S cells, by measuring the median fluorescence index (MFI) (see FIG. 1). For this, 5×10⁺⁵ 2G10 (CHO-S-CD160) and non-transfected CHO-S cells were labelled with 2 μg of each of these antibodies and also with the appropriate control isotypes. In FIG. 1, all the anti-CD160 tested (regardless of the isotype or the IgG format or the variant) specifically recognize human CD160 expressed recombinantly by the CHO-S cells.
In FIG. 1B, the IgG4 variants bind more efficiently to the CHO-hCD160 transfectants than H7 (which results in a median fluorescence increased by a factor of 2 compared with H7 IgG4 ELB01101 or with H7 IgG4 H310A-H435Q ELB01102), this being even in the presence of the H310A-H435Q mutations.

Gain in KD/respective IgG [1]: 3.1 fold
Kd [1]: 4.2 nM
koff [1]: 0.00122 s⁻¹
kon [1]: 292000 M⁻¹ s⁻¹
Kd [2]: 1.52 nM
koff [2]: 0.000752 s⁻¹
kon [2]: 494000 M⁻¹ s⁻¹
EC50 (read off the curve) [3]: ~3 nM
EC50, factor against H7 IgG4 (ELB01101) [4]: 10 fold
Kd [5]: 1.52 nM
koff [5]: 0.000752 s⁻¹
kon [5]: 494000 M⁻¹ s⁻¹
Gain in KD/respective IgG [6]: 1.7 fold
median fluorescence, factor against H7 IgG4 ELB01101 [7]: 2 fold
B1: D12 IgG4 S228P/R409K (antibody)
heavy: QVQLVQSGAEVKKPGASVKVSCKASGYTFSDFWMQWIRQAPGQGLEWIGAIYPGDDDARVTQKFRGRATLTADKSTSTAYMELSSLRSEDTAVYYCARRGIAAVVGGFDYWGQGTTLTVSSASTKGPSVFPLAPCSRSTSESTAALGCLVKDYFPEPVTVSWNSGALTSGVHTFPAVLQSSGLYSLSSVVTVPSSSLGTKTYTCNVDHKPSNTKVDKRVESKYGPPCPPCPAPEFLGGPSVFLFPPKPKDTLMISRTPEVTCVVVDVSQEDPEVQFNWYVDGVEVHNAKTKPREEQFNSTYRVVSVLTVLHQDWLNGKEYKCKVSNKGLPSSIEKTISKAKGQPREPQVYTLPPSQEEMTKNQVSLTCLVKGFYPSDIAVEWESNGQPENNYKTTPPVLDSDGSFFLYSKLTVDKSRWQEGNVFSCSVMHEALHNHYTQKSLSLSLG
light: EIVLTQSPATLSLSPGERATLSCRASQSISNHLHWYQQKPGQAPRLLIKYASQSISGIPARFSGSGSGTDFTLTISSLEPEDFAVYFCQQSNSWPLTFGGGTKVEIKRTVAAPSVFIFPPSDEQLKSGTASVVCLLNNFYPREAKVQWKVDNALQSGNSQESVTEQDSKDSTYSLSSTLTLSKADYEKHKVYACEVTHQGLSSPVTKSFNRGEC
notes: also called ELB01103; H7 IgG4 D12

— patent US20200109211A1 (ELSALYS BIOTECH, published 2020)
